The labels stand for the following.
T1: VEGFR-2 (human, UniProt P35968)
T1 chain: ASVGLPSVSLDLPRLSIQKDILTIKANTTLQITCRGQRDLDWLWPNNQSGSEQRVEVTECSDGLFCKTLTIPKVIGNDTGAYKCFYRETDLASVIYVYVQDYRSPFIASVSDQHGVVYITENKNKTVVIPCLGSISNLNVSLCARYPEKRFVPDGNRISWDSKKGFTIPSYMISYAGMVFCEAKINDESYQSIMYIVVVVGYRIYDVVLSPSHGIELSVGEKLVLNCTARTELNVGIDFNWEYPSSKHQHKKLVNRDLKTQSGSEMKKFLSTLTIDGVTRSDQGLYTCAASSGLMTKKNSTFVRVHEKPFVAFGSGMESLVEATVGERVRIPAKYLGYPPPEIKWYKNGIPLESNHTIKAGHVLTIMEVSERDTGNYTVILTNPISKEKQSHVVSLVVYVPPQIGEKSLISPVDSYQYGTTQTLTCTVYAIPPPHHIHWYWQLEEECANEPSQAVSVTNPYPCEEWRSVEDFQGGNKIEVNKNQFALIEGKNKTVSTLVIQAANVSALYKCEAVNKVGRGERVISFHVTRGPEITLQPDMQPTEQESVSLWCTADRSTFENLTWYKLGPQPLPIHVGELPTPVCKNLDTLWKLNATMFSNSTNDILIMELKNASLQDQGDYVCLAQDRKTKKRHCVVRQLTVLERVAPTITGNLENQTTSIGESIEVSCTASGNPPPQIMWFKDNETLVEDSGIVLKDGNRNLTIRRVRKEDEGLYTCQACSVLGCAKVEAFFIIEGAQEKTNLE

B1: VEGF165 (protein)
chain: APMAEGGGQNHHEVVKFMDVYQRSYCHPIETLVDIFQEYPDEIEYIFKPSCVPLMRCGGCCNDEGLECVPTEESNITMQIMRIKPHQGQHIGEMSFLQHNKCECRPKKDRARQENPCGPCSERRKHLFVQDPQTCKCSCKNTDSRCKARQLELNERTCRCDKPRR
B2: VEGF121 (protein)
chain: APMAEGGGQNHHEVVKFMDVYQRSYCHPIETLVDIFQEYPDEIEYIFKPSCVPLMRCGGCCNDEGLECVPTEESNITMQIMRIKPHQGQHIGEMSFLQHNKCECRPKKDRARQEKCDKPRR
B3: (cap)P6V8-3NCS1-7CC (peptide)
chain: CKGRGKRCREKQRPSDKPRR
modifications: disulfide 1-8; also: capped amino and carboxyl termini, chemistry of caps not given here

Bridge positions count the residues as written; N and C are the ends. Ends that are not written are not given here.

The results in this text go back to patent US7052705 (dated 2006).

T3 sequence (O14786 22-923): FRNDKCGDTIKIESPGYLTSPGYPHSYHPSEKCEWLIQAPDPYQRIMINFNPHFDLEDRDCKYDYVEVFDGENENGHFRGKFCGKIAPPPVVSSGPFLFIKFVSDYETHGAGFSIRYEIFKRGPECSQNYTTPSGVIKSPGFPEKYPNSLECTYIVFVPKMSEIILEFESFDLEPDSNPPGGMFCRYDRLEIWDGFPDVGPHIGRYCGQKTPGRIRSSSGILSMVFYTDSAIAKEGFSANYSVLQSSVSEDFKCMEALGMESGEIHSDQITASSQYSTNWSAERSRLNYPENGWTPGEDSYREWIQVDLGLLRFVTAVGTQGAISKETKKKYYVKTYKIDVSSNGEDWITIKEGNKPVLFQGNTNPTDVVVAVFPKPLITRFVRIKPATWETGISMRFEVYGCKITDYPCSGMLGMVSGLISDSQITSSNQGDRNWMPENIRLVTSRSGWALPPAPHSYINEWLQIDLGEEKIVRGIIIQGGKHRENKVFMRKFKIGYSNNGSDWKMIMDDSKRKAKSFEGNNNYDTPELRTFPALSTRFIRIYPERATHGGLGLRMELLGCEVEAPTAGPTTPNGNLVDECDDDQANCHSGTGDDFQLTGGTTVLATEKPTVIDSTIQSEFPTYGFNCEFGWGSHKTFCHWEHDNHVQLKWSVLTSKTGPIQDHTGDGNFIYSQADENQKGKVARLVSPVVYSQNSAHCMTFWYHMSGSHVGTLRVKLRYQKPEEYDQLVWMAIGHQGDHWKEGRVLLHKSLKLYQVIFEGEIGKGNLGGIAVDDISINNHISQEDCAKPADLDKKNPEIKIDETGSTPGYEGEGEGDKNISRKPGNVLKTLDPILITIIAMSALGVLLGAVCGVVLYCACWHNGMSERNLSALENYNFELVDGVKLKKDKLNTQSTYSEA

The first experiment concerns the target T2, VEGFR-2/NP-1 co-expressed (human, UniProt P35968). Put plainly: competition, Balb/c.
Target sequence in this assay (chain, as listed by the source, chain 2 of 2, one chain of several): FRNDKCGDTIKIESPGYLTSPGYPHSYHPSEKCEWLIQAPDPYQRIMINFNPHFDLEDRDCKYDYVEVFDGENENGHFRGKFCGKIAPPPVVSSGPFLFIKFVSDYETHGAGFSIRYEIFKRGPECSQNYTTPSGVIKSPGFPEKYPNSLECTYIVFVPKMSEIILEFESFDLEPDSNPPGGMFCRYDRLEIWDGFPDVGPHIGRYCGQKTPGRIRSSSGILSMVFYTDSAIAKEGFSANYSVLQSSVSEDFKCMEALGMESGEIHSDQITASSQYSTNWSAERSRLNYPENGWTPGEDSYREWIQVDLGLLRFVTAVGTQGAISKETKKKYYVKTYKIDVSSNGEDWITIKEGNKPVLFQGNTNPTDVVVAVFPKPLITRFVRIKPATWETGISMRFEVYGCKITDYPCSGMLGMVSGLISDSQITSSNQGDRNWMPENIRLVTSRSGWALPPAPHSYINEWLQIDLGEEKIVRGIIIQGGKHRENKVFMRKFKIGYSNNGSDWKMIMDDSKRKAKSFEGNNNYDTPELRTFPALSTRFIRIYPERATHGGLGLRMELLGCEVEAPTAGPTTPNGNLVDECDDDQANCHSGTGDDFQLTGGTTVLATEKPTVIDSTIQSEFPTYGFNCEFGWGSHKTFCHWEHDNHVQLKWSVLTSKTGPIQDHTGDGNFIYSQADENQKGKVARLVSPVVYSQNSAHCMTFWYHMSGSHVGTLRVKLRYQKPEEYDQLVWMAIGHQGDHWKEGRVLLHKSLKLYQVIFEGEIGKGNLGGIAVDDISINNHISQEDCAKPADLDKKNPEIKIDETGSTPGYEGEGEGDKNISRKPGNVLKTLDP
In general, IC50 refers to the point on the concentration scale where inhibition reaches its midpoint. For RRPKGRGKRRREAAAPSDKPRR [AS-4], the IC50 was determined as 300 nM.

A further experiment has as its target T3, Neuropilin-1 (NP-1) (human, UniProt O14786). The experiment can be described thus: competition, Balb/c.
Molecule B1 came in with an IC50 of 0.158 nM.
RRPKGRGKRRREAAAPSDKPRR [AS-4] returned an IC50 of 17.8 nM.
On to KGRGKRRREKQRPCDKPRR [P6V8-3N], for which the IC50 worked out at 254 nM.

Another experiment deals with T2, VEGFR-2/NP-1 co-expressed. Put plainly: competition, 125I-VEGF165.
Regarding RRPKGRGKRRREKQRP [P6], the IC50 amounted to 12200 nM.
In the case of RRPKGRGKRRREKQRPDAVPRR [P6P7], the IC50 was 1170 nM. Against the preceding molecule, the IC50 is about 10-fold lower.

The target in a further experiment is T2, VEGFR-2/NP-1 co-expressed. Put plainly: competition, COS-1.
Regarding RRPKGRGKRAAAKQRPSDKPRR [AS-3], the binding result was “no binding”.
Same read-out and setting: the result for B2 reads “no binding”.

In another experiment the target is T1, VEGFR-2. The experiment can be described thus: competition, COS-1 cells, 4C.
In turn, B2 gave a half-inhibitory concentration (IC50) of 0.312 nM.

The target in another experiment is T3, Neuropilin-1 (NP-1). The experiment can be described thus: competition, COS-1.
In the case of RPCDKPRR [V8], the binding result is on record as “no binding”.
Regarding B2, the binding result is given as “no binding”.

A further experiment addresses T3, Neuropilin-1 (NP-1). The experiment can be described thus: other, radioligand saturation COS-1.
In general, Kd refers to the equilibrium constant for the complex coming apart. A lower Kd goes with tighter binding. As for B1, the Kd was found to be 2.09 nM.

A further experiment concerns the target T1, VEGFR-2. Put plainly: competition, COS-1.
Consider RRPKGRGKRRREKQRAAAKPRR [AS-4A], for which the binding result is recorded as “no binding”.
KGRGKRRREKQRPSDKPRR (also: (cap), group not given here) [(cap)P6V8-3NCS]: the binding result is reported as “no binding”.
The same measure, in the same setting: then AGRGKARREKQRPSDKPRR [P6V8-3NCSA1A6], with “no binding”.
Take RPCDKPRR [V8]: the binding result is reported as “no binding”.
Turning to KGRGKRRRECQRPSCKPRR (disulfide 10-15) [P6V8-3NCSC13C18], the binding result was “no binding”.
B3: the binding result is “no binding”.
Take AGRGARAAEKQAPSDKPRR [P6V8-3NCSA1,5,7,8,12]: the binding result is reported as “no binding”.
Consider CAGRGKRCREKQRPSDKPRR (disulfide 1-8) [P6V8-3NCS1-7CCA1], for which the binding result is “no binding”.
As to RRPKGRGKRRREAAAPSDKPRR [AS-4], the binding result is listed as “no binding”.
For the molecule PKRSRRKGQPRPRGRREKRDRK [RAND1], the binding result is reported as “no binding”.
As to KGAGARRREKQRPSDKPRR [P6V8-3NCSA3A5], the binding result was “no binding”.
Take RREKQRPCDKPRR [P6V8-9N]: the binding result was “no binding”.
AGRGARRREKQRPSDKPRR [P6V8-3NCSA1A5]: the binding result was “no binding”.
Consider RRPAAAGKRRREKQRPSDKPRR [AS-1], for which the binding result is on record as “no binding”.
As to RPSDKPRR [V8CS], the binding result is “no binding”.
For CKGRGARCREKQRPSDKPRR (disulfide 1-8) [P6V8-3NCS1-7CCA5], the binding result is recorded as “no binding”.
For the molecule CAGRGARCREKQRPSDKPRR (disulfide 1-8) [P6V8-3NCS1-7CCA1A5], the binding result is recorded as “no binding”.
For the molecule KGRGKRAAEAQAPSDKPRR [P6V8-3NCSA7,8,10,12], the binding result is reported as “no binding”.
On to KGAGKARREKQRPSDKPRR [P6V8-3NCSA3A6], for which the binding result was “no binding”.

For another experiment, the target named is T3, Neuropilin-1 (NP-1). The experiment can be described thus: competition, COS-1. The source holds these as a separate data set.
B1 came in with an IC50 of 0.582 nM.
